Data from patent US20160040149A1, “Compositions Having Dicamba Decarboxylase Activity and Methods of Use” (priority 2013, published 2016).

Test: Saturation mutagenesis of SEQ ID NO:109: dicamba decarboxylation activity of point mutants (CO2 released), fold of backbone (Tables 7, 8, Megatable 1)
Details: decarboxylation activity (CO2 released) of point mutant vs unmutated backbone protein; backbone SEQ ID NO: 109

| Molecule | Fold Activity [fold] |
| --- | --- |
| 45 (protein, Mycobacterium sp) MANDDLAEVIAAHPDRFAGFAALPMRDPQAAAVELQRAVGTHGFCGAMINGLIEGRFLDDPAFAPLLSTAADLGVPLYLHPSFPPPQVAEIYFGGLAPVLGDLLATAGWGWHAETALHVLRLVATGVFDRLPELWVIVGHMGEMIPFALARIDTVLSPVAQLRQPVAQYFQTNVWFTTSGYTTFPPLQCALSTVGIDRLIFSVDYPYTDNTSARALLDTAPISPVDREKLAHGTVEALLRV | 1.7 |
| 35 (protein, Burkholderia sp) MAFKASRKIALEEHFAIDATVQDSAGFVPPSYWAELKRRLLDIHDRRIDEMDRNGVELMVLSLNAPTVQAVPNIKDAYDLSRRANDFLAEQIVKRPERFKGFAALPMQSPDLAARELERCVKELNFVGALVNGFSQVEESGTALYYDLPQYRQFWSVVQALDVPFYLHPRNPLPAHAPIYEGHPWLLGPTWAFGQETAVHALRLMGSGLFDEYPELKIILGHMGEGLPYSMWRIDNRNAWVETQPNYPAKKRIAEYFHKNFWLTTSGNFRTQTLIDAMLEIGSDRILFSTDWPFENVDHAAQWFDDAAISENDRIKIARTNAARLFKLEP | 2.2 |
| 31 (protein, listed as Agrobacterium sp.) MAQGKVALEEHFAIPETLQDSAGFVPGDYWKELQHRLLDIQDTRLKLMDAHGIETMILSLNAPAVQAIPDKTKAIEIARRANDVLAEECAKRPDRFLAFAALPLQDPDAATEELQRCVNDLGFVGALVNGFSQEGDGQTPLYYDLPQYRPFWGEVEKLDVPFYLHPRNPLPQDSRIYDGHPWLLGPTWAFAQETAVHALRLMASGLFDEHPRLNIILGHMGEGLPYMMWRIDHRNAWVKLPPRYPAKRRFMDYFNENFHITTSGNFRTQTLIDAILEIGADRILFSTDWPFENIDHASDWFNATSIAEADRVKIGRTNARRLFKLDGA | 1.7 |
| 39 (protein, listed as Agrobacterium fabrum) MAQGKVALEEHFAIPETLQDSAGFVPGDCWTELQHRLLDIQDTRLKLMDAHGIETMILSLNAPAVQAIPDKTKAIEIARRANDALAEECAKRPDRFLAFAALPLQDPDAATQELRRCVNDLGFVGALVNGFSQEGDGQTPLYYDLPQYRPFWGEVEKLDVPFYLHPRNPLPQDSRIYDGHPWLLGPTWAFAQETAVHALRLMASGLFDEHPRLDIILGHMGEGLPYMMWRIDHRNAWVKLPPRYPAKRRFVDYFNENFHITTSGNFRTQTLIDAILEIGADRILFSTDWPFENIDHASDWFHATSIAEADRVKIGRTNARRLFKLDGR | 1.6 |
| 36 (protein, listed as Agrobacterium sp.) MAQGKVALEEHFAIPETLQDSAGFVPGDYWTELQHRLLDIQDTRLKLMDAHGIETMILSLNAPAVQAIPDKTKAIEIARRANDALAEECAKRPNRFLAFAALPLQDPDAATQELQRCVNDLGFVGALVNGFSQEGDGQIPLYYDLPQYRPFWGEVEKLDVPFYLHPRNPLPQDSRIYDGHPWLLGPTWAFAQETAVHALRLMASGLFDEHPRLNIILGHMGEGLPYMMWRIDHRNAWVKLPPRYPAKRRFVDYFNENFHITTSGNFRTQTLIDAILEIGADRILFSTDWPFENIDHASDWFHATSIAEADRVKIGRTNARRLFKLDGR | 2 |
| 37 (protein, listed as Burkholderia gladioli) MATFSNVKKIALEEHFAIAETIEDSAGFVPPDDWVELRGRLLDIQERRLAEMDRAGIELMVLSLNAPAVQAIRDPRQAVELARRANDYLAEQVARRPDRFRAFAALPMQAPEQAIREAERCVRELGFVGALVNGFSEAEDGAELYYDLPRYRPFWAALEALEVPFYLHPRNPLAGRAPIYDGHSWLMGPTWAFGQETAVHALRLMGSGLFDAHPRLQIILGHMGEGLPYSMWRVDNRNAWVSAKPNYPAEKPIAEYFRNNFWLTTSGNFRTQTLIDAMLEIGSDRILFSADWPFENMDHAADWFDHASISENDRIKIGRGNAERLLKLGR | 1.6 |
| 40 (protein, listed as Rhodococcus jostii) MAQGKIALEEHFAIPETLNDSAGFVPGTYWDELQARLLDIQDVRLKLMDEHNIETMILSLNAPAVQAIPERERAIDIARRANDVLAEECAKRPDRFRGFAALPLQDPDAAAEELRRCVTELGFVGALVNGFSQSATVDGGSTPLYYDLPRYRPFWAEVERLDVPFYLHPRNPLNQDARIYEGHPWLLGPTWAFAQETAVHALRLMASGLFDEHPGLRIVLGHMGEGIPAMLWRIDHRNAWVDVPPAYPAKRRMVDYFTENFFVTTSGNFRTQTLIDLLLELGSERVMFSTDWPFENINHAAEWFDAASISEADRLKIGRTNAATLFKLDR | 1.4 |
| 33 (protein, listed as Rhizobium leguminosarum) MAQGKIALEEHFAIPETLQDSAGFVPGDYWKELSARLLDIQEKRLRLMDAHGIEKMILSLNAPAVQAIPDRAKALEISRRANDFLAEQCVKNPNRFLGFAALPLQDPDAATQELQRCVTTMGFVGALVNGFSQEGDGTTPLYYDLPQYRSFWAEVEKLNVPFYLHPRNPLPQDSRIYAGHSWLMGPTWAFAQETAVHALRLMGSGLFDEHPALRIIVGHMGEGLPYMMWRIDNRNAWVKVEKSYPAKRPIADYFNENFYITTSGNFRTQSLIDAMLEIGADRILFSADWPFENIDHAANWFDSATISEADRLKIGRTNAVSLFKLDR | 1.6 |
| 43 (protein, listed as Rhizobium leguminosarum) MAQGKIALEEHFAIPETLQDSAGFVPGDYWTELSARLLDIQDKRLRLMDTHGIEKMILSLNAPAVQAIPDKAKAVEISRRANDFLAEQCVKNPNRFLGFAALPLQDPDAATQELQRCVTTMGFVGALVNGFSQEGDGTTPLYYDLPQYRPFWAEVEKLDVPFYLHPRNPLPQDSRIYAGHSWLMGPTWAFAQETAVHALRLMGSGLFDEHPALRIIVGHMGEGLPYMMWRIDNRNAWVKVEKSYPAKRPIADYFNENFYITTSGNFRTQSLIDAMLEIGADRILFSADWPFENVDHAANWFDSATISEADRLKIGRTNAVSLFKLDR | 1 |
| 30 (protein, Enterobacter aerogenes) MARGKIALEEHVSTPENNRLWDSTGEANRNGSEYMQDVERRLLDRSIQLEEMAQRNIDHVILSLTSPGAQSILDKAKAVSFARDTNDFIVDNYVKPNPDKFSAFATLALQNPEAAAEELERAVKKLGMKGALINGYTNVKDSEHGLYLDDESMLVFWDKVNELNVPVYLHPREPLEGPARGIYTGYESLIGSAWGFAQETAVHAIRLMMSGLFDRYPNLNLVLGHLGEGLVHMLPRTQHRLYRQRFGCGLGKAEKPLMHYLQNNFIVTTSGHFNTHSLNNAIEVMGADRVMFSVDYPYEDIHQACDWFDPLEMDEGLKEKIAWGNASRVFNIK | 2 |
| 38 (protein, listed as Variovorax paradoxus) MAQGKIGLEEHFAIPQTLQDSAGFVPGVYWKELSSRLLDIHDGRLRQMDEHGMEMMILSLNAPAVQAVADPVKAYELAVRANDFLAEQVAKRPDRFQAFAALPMQDPEKATQELERCMSVLGFRGALVNGFSQVGTPDNVAYYDAPQYAPFWAAAERLDAPFYLHPRNPIASWAQIYEGHPWLLGPTWAFAQETAVHALRLMASGLFDRHPGLKIILGHLGEGLPYNMWRVDHRNAWVKAPKGYPAKRKLCEYFQENFYLTTSGNFRTQTLIDAMLEVGSDRILFSTDWPFENIDHASNWFNDTSISEADRKKIGRTNAMSLFKLA | 1.8 |
| 28 (protein, listed as Sphingomonas paucimobilis) MARLIATEEAVTFQPVVDALRAHSRTDDASLDMILVRDVYGDEPARPAMIGRLSDVTGERLAEMDSNGVDMHLLSLTAPGVQMFDAETGTRLARIANDLMAQTVAANPTRFAGLGTFAPQDPASAAREIERVATQLRLNGLVINSHTNDLYYDDPFFHPVFEAIEASGLALYIHPRAPSKQIDRAFRDYGMNSAIWGYGIETSTNAVRMILSGLFDRFPRLKIVLGHMGEAIPFWLWRLDYMHGNATTFGGAPKLKLKPSEYFRRNFAITTSGVESHAALRYSIEVLGPENVMWAIDYPYQPMAPAVQFIRTAPIPEDVKAMVAGGNAARIFRIT | 1.2 |
| 42 (protein, Agrobacterium radiobacter) MAQGKIALEEHFAIPDTLQDSAGFVPGDYWKELSARLLDIHEQRLMQMDAYGIEKMILSLNAPAVQAIPDKAKALEISRRANDFLAEQCARNPDRFLGFAALPLQDPDAATAELQRCVKTLGFVGALVNGFSQEGDGVTPLYYDLPQYRGFWAEVEKLAVPFYLHPRNPLPQDSRIYAGHPWLMGPTWAFAQETAVHALRLVGSGLFDDHPALRIILGHMGEGLPYMMWRIDNRNAWVKVAPNYPAKRRIADYFNENFYITTSGNFRTQSLVDAMLEIGADRILFSTDWPFENIDHASDWFDTATISEADRLKIGRTNAATLFNLES | 1.7 |
| 34 (protein, Cupriavidus necator) MAQGKIGLEEHFAIPETLNDSAGFVPGDYWKELSRRLLDIQDDRLRQMDENGMEMMLLSLNAPAVQAVPDRKQACELAVRANDFLAEQVSRRPDRFQALAALPLQDPDFATVELTRCVNELGMRGALVNGFSQIDTPDNVVYYDAPQYASFWAAVEKLDVPFYLHPRNPIASWAQIYDGHPWLLGPTWAFGQETAVHALRLMASGLFDRHPALQIVLGHLGEGLPYSLWRIDNRNAWVKAPKTHPAKKTFRHYFQQNFHLTTSGNFHNQTLIDAILEIGADRILFSTDWPFENIDHAAKWFDSASISEADRTKIGRTNAMKLFKLVA | 1.6 |
| 44 (protein, listed as Mycobacterium avium) MARIITVEEHFQHPEVSARVAELTGPAVEGLAEFGNAFSLDPDSTARLGGNRLAHMDQVGIDVQVVSHGNGSPGTLQHPEAVELCRRVNNDLAAQIAENPDRFRGFATLPLYDPAAAAEELRRCVGDLGFVGALIAGSYDGLFLDDERFDPILTAAEAVDFPIYVHPGLPEAPVSQRYYAGSWPASVHMMFSGPAFGWHAEAGIHIVRLILSGALDRHPTLKLLSGHWGELAAFYLERLDETLGLLPTGLERAPSDYYRQQVWITPSGMYNQNQLNFMTAELGAQRIIYSEDFPYVVRDNVSTFLEQAGLSEADTHAIAHTNAEALLRI | 0.7 |
| 29 (protein, listed as Pseudovibrio sp.) MAGRRDFLRKSVAAGVGLTAAAQLSAGGAQATVPDTSNIPLITLEEHFTTPELQSKNTSGDKRLFSGGGSRPELLDVGAGRIADMDEAGIDIQVLSTVTPGASKITGAEGVEFTRKFNTWIAEEVIAAYPNRFRAFATLPLSSPEAAADELERSVREYGFVGTMTYGPIDGKFLDHADYAPLLARAEALGVPIYIHPNWPSPTAMQAYYDGLGDDLTSRILSGPGYGWHQEIAVQCLRLIVGGVFDRFPNLQIVVGHMGEGLPFYYWRVGEDLDRIAQKRLQKPVQQYFHDNLWITTSAFFRDELLNLALATMGEDRVMFSVDYPMASAKVGADWLRAADIPLATKEKIGSKNAMKLLGIDKI | 1.5 |
